Data published in the supplement of paper PMC9170038.

System: MS2 coat protein
Experiment: apparent KD of MS2 coat protein; designed switch direction (-1 OFF switch, 1 ON switch): -1; higher = weaker reporter binding
How it was run: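 The buffer was Tris-HCl pH 7.5 with KCl, MgCl2, BSA, DTT, tRNA and Tween-20. In it, SNAP-549-labelled MS2 coat protein was titrated in doubling steps from 0.7 or 1.5 nM to 3 µM over chip-bound RNA switches transcribed by stalled E. coli RNA polymerase on Illumina chips. Apparent KD is the per-design median over clusters of curve fits to normalised fluorescence.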

[1] = input ligand: microRNA oligo, concentration not stated
[2] = Eterna round: R95, input ligand: microRNA oligo, concentration not stated
[3] = Eterna round: R95, input ligand: FMN 200 uM
[4] = Eterna round: R95, input ligand: none

| Sequence | apparent KD of MS2 coat protein (input ligand: FMN 200 uM) | apparent KD of MS2 coat protein (input ligand: none) | also measured |
| --- | --- | --- | --- |
| AAUGGGCAAGCAUGAUCCCACAUGAGGAUCACCCAUGUGUUCGUCUUAUAGGCUGCUGAGGCUUUUGCCUCGGUGGC [LRO Sensor-off var1-03 loose mod of D91 from Mat747] (Eterna round: R97, puzzle: Sensor, turn-off variant 1) | 0.85 µM | 1.37 µM |  |
| AAUUAAACAAGCAGAUCCCACAUGAGGAUCACCCAUGUGCUCGUCUUAUAAGGUACUGUGACGAUAGUCACGGUACC [Mat - Sensor, turn-off var - Eli Mod - D65] (Eterna round: R97, puzzle: Sensor, turn-off variant 1) | 0.0446 µM | 0.0427 µM |  |
| AAUUAAUAUCAGGAUAUGACGUGCUUCGGCACGUCAGAAGGGAUGACAUGAGGAUCACCCAUGUGAUCAAUUAA [E6/1-A1] (Eterna round: R97, puzzle: Exclusion 6) | 0.105 µM | 0.0286 µM |  |
| AAUUAAUGUGUGAGGAUAUUGAUGGAAUGACUUAUUAAGAAGGCACAUGAGGAUCACCCAUGUGGGAAGUCACG [JR_BMEx4_Sub015] (Eterna round: R97, puzzle: Brourd's mod of Exclusion 4) | 0.0276 µM | 0.0186 µM |  |
| AAUUAGCAAGCGAGAUCCCACAUGAGGAUCACCCAUGUGCUCGUCUUAUAAAAGACUGUGACGAAAGUCACGGUCAC [Mat - Sensor, turn-off var - Eli Mod - D26] (Eterna round: R97, puzzle: Sensor, turn-off variant 1) | 0.014 µM | 0.0159 µM |  |
| AAUUAUAGAGGAUAUACAGAUUAAUACAUGAGGAUCACCCAUGUUCUUCAAUGUAUAUAUGUAGAAGGCUAAGGAA [JR_Ex5_Sub091] (Eterna round: R97, puzzle: Exclusion 5) | 0.181 µM | 0.238 µM |  |
| AAUUAUUAUUGAGGAUAUCGUAUUGAAACAAUACGAGAAGGCGGGAUAAACAUGAGGAUCACCCAUGUGAGCCUGAUGCUUGUG [Ex NG1 #41] (Eterna round: R96, puzzle: Exclusion NG 1) |  |  | apparent KD of MS2 coat protein [1]: 0.0134 µM |
| AAUUAUUGAUGAGGAUAUUGUGGUGAAACACGACAAGAAGGCAUUAUUCACAUGAGGAUCACCCAUGUGAGCCUGAUGCAUAUA [Ex NG1 #60] (Eterna round: R96, puzzle: Exclusion NG 1) |  |  | apparent KD of MS2 coat protein [1]: 0.0115 µM |
| AAUUAUUGAUGAGGAUAUUGUGGUGAAACACGACAAGAAGGCAUUAUUCACAUGAGGAUCACCCAUGUGAGCCUGGUGCAUAUA [Ex NG1 #61] (Eterna round: R96, puzzle: Exclusion NG 1) |  |  | apparent KD of MS2 coat protein [1]: 0.0116 µM |
| AAUUAUUGAUGAGGAUAUUGUGGUGAAACACGACGAGAAGGCAUAUGUCACAUGAGGAUCACCCAUGUGAGCCUUGUGGAUAUA [Ex NG1 #65] (Eterna round: R96, puzzle: Exclusion NG 1) |  |  | apparent KD of MS2 coat protein [1]: 0.0435 µM |
| AAUUAUUGAUGAGGAUAUUGUGGUGAAACACGACGAGAAGGCAUUUGUCACAUGAGGAUCACCCAUGUGAGCCUUGUGCAUAUA [Ex NG1 #63] (Eterna round: R96, puzzle: Exclusion NG 1) | 0.0252 µM | 0.0151 µM | apparent KD of MS2 coat protein [1]: 0.0187 µM |
| AAUUAUUUAUGAGGAUAUUGUGGUGAAACACCACAAGAAGGCAUGAUACACAUGAGGAUCACCCAUGUGAGCCUGAUGCUUAUG [Ex NG1 #54] (Eterna round: R96, puzzle: Exclusion NG 1) |  |  | apparent KD of MS2 coat protein [1]: 0.0137 µM |
| AAUUAUUUUUGAGGAUAUGGUGGUGAAACACCACCAGAAGGCGGAAUAAACAUGAGGAUCACCCAUGUGAGCCUGAUGCUUAUG [Ex NG1 #47] (Eterna round: R96, puzzle: Exclusion NG 1) |  |  | apparent KD of MS2 coat protein [1]: 0.0175 µM |
| AAUUCACAAGCGAGAUCCCACAUGAGGAUCACCCAUGUGCUCGUCUUAUAAGGUACUGUGACGAUAGUCACGGUACC [Mat - Sensor, turn-off var - Eli Mod - D87] (Eterna round: R97, puzzle: Sensor, turn-off variant 1) | 0.0164 µM | 0.0161 µM |  |
| AAUUCACAUGAGGAUCACCCAUGUCAGGAUAUGGUUACGCGGGUUUCGGUGCGUGUGGCCAGAAGGGACAGCUA (puzzle: Exclusion 1) |  |  | apparent KD of MS2 coat protein [2]: 0.0546 µM |
| AAUUCCAAGCUCAACGUUCACAUGAGGAUCACCCAUGUCAUGAGCUGUUAUAAGUUCGGAUGUUAUAUUUUGCUCGU [Eternabot (L2) Solution 12] (Eterna round: R97, puzzle: Sensor, turn-off variant 1) | 0.0146 µM | 0.015 µM |  |

| Sequence | apparent KD of MS2 coat protein (input ligand: FMN 200 uM) | apparent KD of MS2 coat protein (input ligand: none) | also measured |
| --- | --- | --- | --- |
| AAUUGCUAGCCGAUCCUCCACAUGAGGAUCACCCAUGUGCUUGUCUUGUAAUGUACUAUCACGAAAGUGAUAGUACA [Sensor v3, turn-off variant 1 (MOD of Eli's v1-59 v.5)] (puzzle: Sensor v3, turn-off variant 1) |  |  | apparent KD of MS2 coat protein [3]: 0.0447 µM; apparent KD of MS2 coat protein [2]: 0.0547 µM; apparent KD of MS2 coat protein [4]: 0.0432 µM |
| AAUUUACAUGAGGAUCACCCAUGUCAGGAUAUGGUUUUAUUUUUUUCUUUUCUUGAUUCCAGAAGGGACAGCUA (puzzle: Exclusion 1) |  |  | apparent KD of MS2 coat protein [2]: 0.0822 µM |
| AAUUUACAUGAGGAUCACCCAUGUGAGGAUAUAUAUAUAUAUUUGUUAUUGUGUGUGUGUAGAAGGCGCGUGAU [JR_Exc1_Sub034] (Eterna round: R97, puzzle: Exclusion 1) | 0.0333 µM | 0.0422 µM |  |
| AAUUUACAUGAGGAUCACCCAUGUGAGGAUAUAUGCAAAUAAUUUUUAUUAAUAAAGCAUAGAAGGCGCGUGAU [JR_Exc1_Sub042] (Eterna round: R97, puzzle: Exclusion 1) | 0.188 µM | 0.073 µM |  |
| AAUUUGCAAGCGAGAUCCCACAUGAGGAUCACCCAUGUGCUCGUCUUAUAAGGUACUGUGACGAAAGUCACGGUACC [Mat - Sensor, turn-off var - Eli Mod - D92] (Eterna round: R97, puzzle: Sensor, turn-off variant 1) | 0.0164 µM | 0.0129 µM |  |
| AAUUUGUCAGGAUAUUGUUAGUUUAGUUGUUUGUAUUAGUUCGAGAAGGGACAUGAGGAUCACCCAUGUGAAAA [Ex4 #70] (Eterna round: R97, puzzle: Exclusion 4) | 0.0392 µM | 0.0534 µM |  |
| ACAAGAAUUUUGCUCGUAAAGUAGGAACGCGAGAGCGGGACAUGAGGAUCACCCAUGUAGAGGCAGUUGGUGGAGAU [JR_SV3TOV2_Sub029] (puzzle: Sensor v3, turn-off variant 2) |  |  | apparent KD of MS2 coat protein [3]: 0.0422 µM; apparent KD of MS2 coat protein [2]: 0.056 µM; apparent KD of MS2 coat protein [4]: 0.0434 µM |
| ACAAGCAAGACAGGAUAUACGAAGCACGUUGUGGUCUGUGACAUGAGGAUCACCCAUGUGUGAGAGUAGAAGGGUUUUGAUCCC [Edarenraat] (Eterna round: R96, puzzle: Exclusion NG 2) | 1.14 µM | 0.828 µM | apparent KD of MS2 coat protein [1]: 0.685 µM |
| ACAAGCAGAGGUGUGCGACACAUGAGGAUCACCCAUGUCGUCUGCCUCUGUGCAGAGGCUUUUUGCUCGUACUUAUU [Sensor V1 S3] (Eterna round: R97, puzzle: Sensor, turn-off variant 1) | 0.0201 µM | 0.0193 µM |  |
| ACAAGCUAUCUCUUAUCUUACAUGAGGAUCACCCAUGUUUUUUCAAUUUUGUUUGGUCUCCUUUGUGCUCGUCUUAU [JR_STOV1_Sub053] (Eterna round: R97, puzzle: Sensor, turn-off variant 1) | 0.0532 µM | 0.0552 µM |  |
| ACAAGCUGGCUCGUCUUAUACAUGAGGAUCACCCAUGUUCUCAAGGUCUUAUGUACUGACACGAAAGUGUUAGUAAU [AK-miRNA-r3-2] (Eterna round: R97, puzzle: Sensor, turn-off variant 1) | 0.0298 µM | 0.0302 µM |  |
| ACAAGCUUAAAAGGUGAUAACAUGAGGAUCACCCAUGUUCGUCUUAUAAAGAUCCUAUGUCGAAAGACGUAGGAUCA [Sensor 3, v1 - 69] (puzzle: Sensor v3, turn-off variant 1) |  |  | apparent KD of MS2 coat protein [3]: 0.0212 µM; apparent KD of MS2 coat protein [2]: 0.028 µM; apparent KD of MS2 coat protein [4]: 0.022 µM |
| ACAAGCUUUGAUAUCCUUAACAUGAGGAUCACCCAUGUUCGUCUUAUGAUGGUCUGAUCCCUGAGGAUCGGACCGUU [JL-sv1-2.08 Brourd Mod] (puzzle: Sensor v3, turn-off variant 1) |  |  | apparent KD of MS2 coat protein [3]: 0.0337 µM; apparent KD of MS2 coat protein [2]: 0.0962 µM; apparent KD of MS2 coat protein [4]: 0.0355 µM |
| ACAAGCUUUGUUGGGUGGUACAUGAGGAUCACCCAUGUUUGCCGCGUCUUGUGGGCCCGGGCCCGCGGCCCGGGCCC [-41.8, -63.9, A 12%] (Eterna round: R97, puzzle: Sensor, turn-off variant 1) | 0.403 µM | 0.46 µM |  |
| ACAAGCUUUGUUGUGGGUGACAUGAGGAUCACCCAUGUUUGCCGCGUCUUGUGGGCCCGGGCCCGCGGCCCGGGCCC [-42.5, -64.4, A 12%] (Eterna round: R97, puzzle: Sensor, turn-off variant 1) | 0.202 µM | 0.173 µM |  |
